Experimental data reported in the DeepSol protein solubility set.

Experiment: soluble on expression in E. coli; label from the status in PepcDB or PDB records

Soluble on expression in E. coli, not soluble:
MGSDKIHHHHHHMPTTASVLIRDSAPREATSPPFLDIRDVHKRFAGVKALRGVSLAIERGQIYHLLGENGCGKSTLIKIISGAQPPDEGTLVVEGREVAGLSPIMALAAGIETVYQDLSLLPNLSVAENIALSQQLVASGGQLARRLDLARLKATATRALEAVNLPAGDGFLATRVDELPIATRQLIAIARVIATDAKLVIMDEPTTALTKREVDNLIAVVEKLRAKGVAVLFVTHKLDECRTIGGRAIILRDGRKVMEGDIADFTKKDLSHWMTGRALDDSRYREAERGGERLLDVRDLGRANAFGGVSFSLNRGEILGVTGLLDSGRNELALALAGVCPADRGGVSLAGERVVLSQPADAIAAGIGYLPEDRLSEGLFLEKPIADNIIASVLDRLRGRLGMLDRPLSRSRAQEMTDDLQIATPDIANPVQSLSGGNQQRVLIGRWLMIEPRLLVLHGPTVGVDVGSKDTIFRIIQRLAKGGMAVIIISDDLPELLQNCDRILVMRKGRVAEVFDAEGLGEGALYRALVAEESPRSLP
MTNEAIQNREPFLQNLREKLDVEKQPVSAHPFEPVNHLPEEQLADKTPAELLTIVKERVETIHTNLVETTQENLLTTIQQIVAEFGGDNLLLPTDARFEAYGLADLAKSLEAVSVKQWQPGSEQREANIQTAAQANIAIAFAEFLLAESGTIVVESNAGQGRALHFLPKHYISIIPFSKLVPRSTQPAAFYTEKIEKGEKIGSAIHFISGPSNSGDIEMQLVVGLHGPLEVCYVVVMDR
MKVDLFDFHLPEELIAQTPLPDRAASRLMVLDKRTGAIRHETFRNIISYLNPGDCLVLNDTRVMPARLYGEKEETGGTVEVLLLKQLDGDRWETLVKPGKRVKPGTKLTFGGGKLEAVCLDTLEHGGRVLEFSYDGLFYEVLAELGEMPLPPYIKEKLDDPERYQTVYAREIGSAAAPTAGLHFTEELLDAIREKGVHIVFITLHVGLGTFRPVQVDEVEKHDMHAEFYQMSEETAETLNRVREQGGRIIAVGTTSTRTLETIAGKHNGRFVAESGWTDIFIYPGYEFKGIDGLVTNFHLPKSTLIMLVSALAGRENILHAYQVAVKERYRFFSFGDAMLII
MITLREFKEENTAQLTHILNEPEVVKYLSSKIPKPDTLQDAQWWISTGSKFGIVKAIECNGSLIGCIGADRGEFEYQRSAEIGYWIAKDYWRQGVATQAISELIPLIFTTTDIVRLFASVFSENTASMRVLDKCGLKLEAIHKKAIYKDGKFYDNHIFSILKT
MSAALVAQQVATLREQGFAVVRNFASPPVRQALRELALQHLAQTVDPVEYEADLKYPGAPSSRLAAGGQTVRRLLDAYGRDQRFRDWATQAAIGAFLRAYFQDTPVLSTVHHNCIMTKHPAFGSLTGWHQDIRYWSFSDDDLVSCWLALGDERADNGGLYFVPGSHTASFMPEQYDARKFFRDDLPQNQEWIGRAVCPELQAGDVVFFHCRTLHAARQNATDTVKLSLVHTYHPASCHPLPGTRSAGSPGVPLPLEHHHHHH
MSEEHIAVTRFREYLRVNTEQPNPDYVACRDFLFKYADEVGIERKAVETAPGVYFVIMTIPGSQPELPSIMLYSHTDVVPTFREHWTHDPYSAFKDEDGNIFARGAQDTKCLGVQHVEAFRNLFAKGAKQWKRTIHVVWGPDEETGHINGMKGFVETNEFKKLNIGFSLDEGHASENGVYLTFYAERVTWWLKVTAPGNPGHGSQFMENTAMEKIERFLASARAFRNEQKELLEKNPTWALGDVTTLNVNILKGGVQFNVIPEKFEAYVDIRLTPNQDFGEIRAKLDQWVKDAGEGVTYEFSQHSDYKPVSPHTRDDPFWAAFEDSLKQENCEFTTEVCVGSTDSRFVRKAGVPAINFSPMINTPVRAHAHNEFLNEKVFLRGVEIFETLINNLGNV
MSLSGDDFSVPSKNSESTLFDSVEGDGAMMEEGVKSRPRQKKTQACLASKHVQEAPRLEPANEEHNVETAEDSEIRYLSADSGDADDSDADLGSAVKQLQEFIPNIKDRATSTIKRMYRDDLERFKEFKAQGVAIKFGKFSVKENKQLEKNVEDFLALTGIESADKLLYTDRYPEEKSVITNLKRRYSFRLHIGRNIARPWKLIYYRAKKMFDVNNYKGRYSEGDTEKLKMYHSLLGNDWKTIGEMVARSSLSVALKFSQISSQRNRGAWSKSETRKLIKAVEEVILKKMSPQELKEVDSKLQENPESCLSIVREKLYKGISWVEVEAKVQTRNWMQCKSKWTEILTKRMTNGRRIYYGMNALRAKVSLIERLYEINVEDTNEIDWEDLASAIGDVPPSYVQTKFSRLKAVYVPFWQKKTFPEIIDYLYETTLPLLKEKLEKMMEKKGTKIQTPAAPKQVFPFRDIFYYEDDSEGHHHHHH
APQGINQFALLLNKQDTLTEFDTLVPGRFQAMRDGTRVTYTEELSKDRGELAGIFISQKDLNSSNQERGISILVAEKGTQNIQADGSRYLILHNGYRYDGNPGQANYRAIQYDTYGVMLPKPEASSEVSERDAVPTADLFGSDNPRYQAELQWR
MAHHHHHHMPLVEYVNEEGYRLDGRKEDECRLIKINVGNENIFTDADGFAFYEIGNTKLLSYIQGPTELKKSEEKCSIKCEVFLSPFNVYEKKKKKTKDSVTNEISAYIRNICENIILLDLYKNSEINIFLYIIERDGGVKHAAINTCILALIDAGIAIKYFISACSVLFLQNRILVDGNQLEINSGAPELTMVIELNTHKIVLLEFDAEVPIDIFEAMVRTCMDCCINLGNVMKLTVKENAIKLLCLNNMLNA
MGSDKIHHHHHHIPNLEKSGSNFCMPFKGINVVKKCNMEYFLLNADFVNLEKTVFKKSQTLDNVCTGPENTFKTPDAGNYVVRYGERVLMTYKAGSNYRKCIGTYDVDDDLFTCVMPTDNNGFEGLEMGGFLYDPVTGEPHRDDGSVEVFCKIPHKF
MKFLSFIFLVSLCAVTSQINAQAPELPLDKIKLPPGFSISVWANVPDARTMTLGDKGTVFVGSKSAGNVYAITENAGKRQIRIIASKLKMPNGVAFHDGALYVSSVNRILRFDNIENTLDQPLPPRIITADYPKETYHGWRFIAFGPDGWLYVPVGSSCNVCETDLEHYALISRIRPDGSNYEVFAKGVRNTEGFDWHPVTKALWFTDISREWMGDNLPPDELNHASNQGLDFGFPYCHGKEVSDPKLGAKRDCNKFIPPAVELDPHVAPMGMRFYTGTMFPAEYHNGIFIAEHGSWNRSTKIGYRLEWVQLEVNEVARKEIFAEGWLQENEAWGRPVDVLVMPDGALLVSDDMAGVVYRISYDQP
MSTDNLLQPKLIEATLGDYPVIQNMARFYVYDMSRYCGFISEEWTCPPDGLYESYDFKIYFTDPERKAFLIQIDNELAGFALLNKFGIQAVDWSMGEFFILAKFQGKGIGQSVAHQLWRTHPGEWEISVIPENIPALSFWRQAVMTYTL
MSLELKITDFKVFVAQANFEWAFVRIYSKDLYGTGEAGPAPGLKGMESEFIQLLIGEDAFKVNRIAEKLRYATLYSGTTVYHLISAINIALYDLIGKYLNVPIYKLLGGDKTEIPVYVDAHGGKGLEAINALHLPVNLPWIKEAEVETNRLITTNNPVHGRLSMEKWNEDYSPEAYAKRALKMKNEGYKAMKFDLDVPTPYIDLRRVRNGDLSLKDIDYMVDIVKAVRESVGDEVEIMFDLHWRYNLNTAIRICKALEPYRLRWLEDPMPAIMAVSNYDELKLLTSQCSVPIETGENLYTVYQFKDLLNTGVRVWAPDIVKAGGITEGRRIAELAAMYDIEYSPHNIASPIGTMAHAHVGSIANTFGFVEFHGHDVPFWNEIVKPKRKIIEDGVIKLTDDPGLGIDLDDEVMRKYWPTYELEGHHHHHH
MGSDKIHHHHHHMYDLIGVGIGPMNLGLSALAHPTPLRTLFFDESEQFSWHPGMMIKDSMMQTSFISDLVTLADPTSPFTYLNYLRSLNRLHTFYFYEKLLISRQEYNAYLKWVSTQLDDLHFSTRVIDIQDTGDSYEVLVEEVATGKRTTYETRNVVLGTGSKPSIPGSFDKNVIHNTQYVMEKEAILQQDKVSIVGSGQSAAEIFLDLLTSDRPETFELEWISRSTIFETLETGKLGEEIFSPSYVRYFNSLPLATRQEAVAKFTRSQNGISPETLQAIYEHLYDLSPEEQQRVKIRANLEVDQISYDSDFTITMRHTELNEQRTSKTGAVVAATGFVPSLPRFINRLDIEFEGEQQAWKVDANYRISRTVSANHHLYATTNLELSHGPAADNLGMSVSRNQLILNDVAGKELYPVEQHATFTTFD
MDPAEVEFLAEKEMVKIIPNFSLDKIYLIGGDLGPFNPGLPVEVPVWLALNLKQRQKCRIVPPEWMDTDKLEDIREQERKLDTFTPIPNPYYMELTKLLLNHAADNIPKADEIRTLVKDIWDTRMAKLRLSADSFISQQEAHAQLDNLTLMEINTTRSFLLDSLNYMYKLRSNLQPGRSKDY
MGSDKIHHHHHHMTNGVLWRSSLLSDYWFSHLPAALQDSVLHAARQVRKTPGKMLFEKGAAPCGLYALLEGDVRIGGAHFQRLGPRLEPIRRPYWFGEVSLFDEMPRRFDVCSLEQTIFLQVPHSFLVSLLDRHPEYWRHFAALLSQKLGLPLQNPEKLQLLPPRSRVASRLLLLSEGYGPLSHARRLITLDEVTSLQDLSHSALLEVLEDLHERKVVRLGIGQLEVFDVDKLRKIANFSRARAVC
MGSDKIHHHHHHMNSMDATAAHHTSPNATLVYDIRHSRYLNITGRCTLRCGFCPKQQGSRQIHQYQLALDKQPGVDDLLPLLGDVDTFDEYVFCGYGEPTLNLPTLLGVARAIKSQGGRIRVNTDGLGNLFHKRNILPELADCVDALSVSLNAQDEFTYLKHCQPRLKGSWQAVNDFIRMAPAYIKRVEVSAIDGLPGVDIPACRALVEAAGCTFKHRKLDIMG
MSIVAKSYEESADPVVAYCAEHTAVQTPLQAELQKETLTNAPHSGMLGAPEVLTFGENFIKFLGAKRVLDVGTFTGASALAWALAVPDDGEVFTFDIDHANYRKFGVPILSKCEKTFKKIKPVEGPGVESLDKLIADGQSGTFDFAFIDADKANYSNYYEKCVSLLRKGGVIFVDNSLWDGAVCDPAKRTDPRTAAIHEMNDKIYQDDRTYSALLNLGDGIHMAFKK

Soluble on expression in E. coli, soluble:
GMMNTTQEGRQRLAERLADTVAQALEADLAKRERALLVVSGGSTPKPFFTSLAAKALPWARVDVTLADERWVTADDADSNARLVRETLLVGPAAEACFHPLTTDDDTPEAGVETVAERLESLPWPASAVILGMGGDGHTASLFPDSEQLATALETTSAAVVVHAPSVPQARITLSASRLADAGLHVLHITGNDKRRVLAEALAGDDVRQLPIRAFLSQPIATYWAP
SLEQPGFKLRAVTIHFEASADVDSIEDAVFKAKEAIDRLTAEKGVEVWSLRAVLTPGESVADSLGRVAELEPLVEEEGVFINLGLHNASADDWEAVSGIVESGFFLSFALENGTWEEARSYSKLLHRLADKSPDLAVHIGFNPLGTHILTPYFPLATSPGEQRTVTVALLYPRYLLESFRKGGLQAVIDSMVDAAQLSGEYGKAVAKDVEGSFAGVDLSISPWMEESSLALVEEVGGVRLPEPGFAYGLRLVNEAIAAAASKTGYAVGFNEVQLPVAEDSKLKVRVAELETSARDLLRLSGVCLAGLDMAVIPASLDGVAGLLLEARAYSRAKGSIVGVRLIPLDGVEPGDEVFLKRFGEVPVIPI
SASASTQPAALSAEQAKVVLAEVIQAFSAPENAVRMDEARDNACNDMGKMLQFVLPVATQIQQEVIKAYGFSCDGEGVLKFARLVKSYEAQDPEIASLSGKLKALFLPPMTLPPHGPAAGGSVAAS
